The target in experiment [1] is native CLEC-2 on the surface of murine platelets (mouse (endogenous in platelets)) (UniProt Q9JL99).
In experiment [2] the target is T1, recombinant extracellular domain of human CLEC-2 expressed as a dimeric rabbit immunoglobulin Fc domain … (human, UniProt Q9P126 55-229).
T1 construct: CLEC-2, human, extracellular domain; also called hCLEC-2-rFc2; human CLEC-2-rabbit Fc2; source: recombinant, generated as described previously [2]
The experiment can be described thus: SPR; hCLEC-2-rFc2 and control rFc2 amine-coupled to a CM5 chip, Biacore X; S100A13 in modified Tyrode's buffer with 1 mM CaCl2 perfused at 20 uL/min, 25 C; control surface subtracted; Kd by BIAevaluation. The conditions noted are these: both partners purified.

Chain of native CLEC-2 on the surface of murine platelets (mouse (endogenous in platelets)) (Q9JL99 whole entry, the tested form may be a part): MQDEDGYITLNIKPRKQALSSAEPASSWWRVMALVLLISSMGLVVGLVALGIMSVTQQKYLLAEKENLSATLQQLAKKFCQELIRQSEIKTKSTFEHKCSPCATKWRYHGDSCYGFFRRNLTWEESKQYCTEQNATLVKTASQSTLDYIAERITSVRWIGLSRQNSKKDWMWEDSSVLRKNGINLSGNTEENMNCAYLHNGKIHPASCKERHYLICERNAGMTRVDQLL
T1 sequence (Q9P126 55-229): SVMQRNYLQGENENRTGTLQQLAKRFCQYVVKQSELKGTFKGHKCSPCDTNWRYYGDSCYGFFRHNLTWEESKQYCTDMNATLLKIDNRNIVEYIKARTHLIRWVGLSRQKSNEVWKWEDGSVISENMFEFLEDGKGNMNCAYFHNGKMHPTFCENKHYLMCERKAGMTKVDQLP

Regarding rhodocytin (complex), in experiment [1], the release of 5-HT or PDGF from washed murine WT platelets, percent of the total stored, maximum concentration of rhodocytin came to 60%.

B1: GST-tagged S100A13 recombinant protein (natural protein, UniProt Q99584 1-98, looked up)
chain: MAAEPLTELEESIETVVTTFFTFARQEGRKDSLSVNEFKELVTQQLPHLLKDVGSLDEKMKSLDVNQDSELKFNEYWRLIGELAKEIRKKKDLKIRKK
notes: S100A13; also called S100A13-GST; recombinant S100A13-GST; source: bought: CycLex Co., Ltd. (Japan)
With B1, the Kd in experiment [2] came to 0.137 µM.

Usually Kd stands for the free concentration of one partner at which half of the binding sites on the other are occupied at equilibrium, for simple one-to-one binding.

The values are drawn from article PMC4587843, “Vascular Smooth Muscle Cells Stimulate Platelets and Facilitate Thrombus Formation through Platelet CLEC-2: Implications in Atherothrombosis” (PLoS ONE, 2015).
